Results from PMC4565748 (Molecular immunology, 2015).
Numbering of substitutions follows the chain as printed. In names and notes the source's numbering stands.

B1: staphylococcal complement inhibitor SCIN-A, full-length wild type (natural protein)
chain: STSLPTSNEYQNEKLANELKSLLDELNVNELATGSLNTYYKRTIKISGQKAMYALKSKDFKKMSEAKYQLQKIYNEIDEALKSKY
B2: SCIN-A.R42A (natural protein)
chain: B1 chain with R42A
B3: SCIN-A.Q49A (natural protein)
chain: B1 chain with Q49A
B4: SCIN-A.R42A.Q49A (natural protein)
chain: B1 chain with R42A, Q49A

These binders were tested against T1, complement C3b, site-specifically biotinylated (human, UniProt P01024 23-667; P01024 749-1663, biotin, site-specific (site not given)) (assay: SPR).

**Q.** For B1, which Kd is on record?
**A.** Its Kd is 0.096 ± 0.016 µM.

**Q.** And the koff?
**A.** Its koff is 0.051 s⁻¹.

**Q.** What about the kon of the same binder?
**A.** Its kon is 550000 M⁻¹ s⁻¹.

**Q.** B2 was tested. Which Kd did it give?
**A.** The Kd was 6.6 ± 0.62 µM.

**Q.** And the koff?
**A.** The koff was 0.58 s⁻¹.

**Q.** And the kon?
**A.** Its kon is 89000 M⁻¹ s⁻¹.

**Q.** How did the Kd turn out when B3 was run?
**A.** Its Kd is 0.069 ± 0.0083 µM.

**Q.** What about the koff of the same binder?
**A.** Its koff is 0.051 s⁻¹.

**Q.** What about the kon of the same binder?
**A.** Its kon is 760000 M⁻¹ s⁻¹.

These binders were tested against T1, complement C3b, site-specifically … (assay: AlphaScreen or HTRF).

**Q.** With B4 as the binder, how does the Kd read?
**A.** Its Kd is 14 µM.

**Q.** B2 was tested. Which Kd did it give?
**A.** Its Kd is 14 µM.

**Q.** For B3, which Kd is on record?
**A.** The Kd was 0.12 µM.

Molecular target: T1, complement C3b, site-specifically …
Experiment: SPR
Remark: another data set of the same source

**Q.** For B1, which Kd is on record?
**A.** Its Kd is 0.145 ± 0.056 µM.

**Q.** With B4 as the binder, how does the Kd read?
**A.** Its Kd is 15 µM.

**Q.** For B2, which Kd is on record?
**A.** Its Kd is 8.5 ± 0.12 µM.

**Q.** Which Kd does the source give for B3 here?
**A.** Its Kd is 0.22 ± 0.098 µM.
